What was measured:
C-8161 melanoma cells = experiment: Soft agar colony formation assay, combination with cisplatin; type: cell-based, human
Procedure: Soft agar assays were conducted in order to investigate the ability of anti-Axl antibodies of the invention to inhibit anchorage-independent cell growth either alone or in combination with chemotherapeutic agents. The soft agar colony formation assay is a standard in vitro assay to test for transformed cells, as only transformed cells are able to grow in soft agar.
In brief, 750 C-8161 melanoma cells either remained untreated or were pre-incubated with the antagonistic rat anti-Axl antibody 11B7 at 15 μg/ml in IMDM medium (Gibco) for 30 min at 37° C. Subsequently, cells were combined with Difco noble agar solution resulting in 50 μl of top agar cell suspension at concentrations of Agar, FCS, and 11B7 of 0.35%, 0.2%, and 7.5 μg/ml, respectively. This cell suspension was plated on top of 50 μl of a 0.7% agarose bottom layer containing 20% FCS, and was finally covered with another 50 μl of a feeding layer solution that contains 0.2% FCS as well as cisplatin in according concentrations. In the whole of 150 μl per sample, the final concentrations of 11B7 and cisplatin were 2.5 μg/ml and 1.5 μM, 1.0 μM, 0.75 μM, 0.5 μM, or 0.25 μM, respectively. Colonies were allowed to form for 5 days and were then stained with 50 μl MTT (Sigma, 1 mg/ml in PBS) for 3 hours at 37° C. Using a Scanalyzer HTS camera system in conjunction with the HTS Bonit colony formation software (Lemnatec, Wuerselen), the effect of the antagonistic rat anti-Axl antibody 11B7 in the absence or presence of cisplatin were analyzed in triplicates.

[1] = test system: PC-3-LN prostate carcinoma; experiment: Orthotopic prostate carcinoma xenograft model in nude mice; type: in vivo, NMRI nu/nu mice
Procedure: The anti-tumor efficacy of therapeutic antibodies is often evaluated in human xenograft tumor studies. In these model systems, human tumors grow as xenografts in immunocompromised mice and therapeutic efficacy is measured by the degree of tumor growth inhibition. The aim of this study was to evaluate whether the antagonistic rat anti-AXL antibody 11B7 of the invention interferes with tumor growth of human prostate cancer cells in nude mice. In brief, on day 0, 7-8 weeks old male NMRI^−nu/nu mice (approximate weight: 30 g after acclimatization) were anesthesized with 1.5-2.0 volume percent isoflurane at an oxygen flow rate of 2 l/min, and 1×10^6 PC-3-LN cells in 25 μl PBS were orthotopically implanted into the prostate. PC-3-LN cells are derived from the PC-3 prostate carcinoma cell line which was infected with a retrovirus coding for a luciferase-neomycin fusion protein. The onset of tumor growth and tumor growth progression was therefore measurable via in vivo bioluminescence imaging. For this purpose, luciferin was injected intraperitoneally (i.p.) into the mice and light emission was measured 10 min post injection using a NightOWL LB 981 bioluminescence imaging system (Berthold Technologies, Germany). Prior to first treatment, mice were randomized and statistical tests performed to assure uniformity in starting tumor volumes (mean, median and standard deviation) across the treatment groups of 10 animals each. On day 8, all treatments started and were continued until day 34, followed by necropsy on day 35. […] In the same experiment as described under “Rat anti-AXL antibodies of the invention reduce human prostate carcinoma growth in nude mice”, relocalization of PC-3-LN tumor cells into other organs (metastasis) was analyzed post necropsy to evaluate anti-metastatic effects of the antagonistic rat anti-AXL antibody 11B7 of the invention. […] Subsequently, light emission was measured using a NightOWL LB 981 bioluminescence imaging system (Berthold Technologies, Germany).

[2] = test system: NIH3T3-AXL cl.7 fibroblasts; experiment: AlamarBlue Gas6-induced proliferation assay; type: cell-based; conditions: 20 μg/ml antibody, with or without 400 ng/ml Gas6, 96 h
Procedure: In vitro experiments were conducted in order to determine the ability of the rat anti-AXL antibodies of the invention to inhibit Gas6-induced cell proliferation. For this purpose, 2,500 NIH3T3-AXL cl.7 fibroblasts per well were seeded in FCS-containing medium on 96 well plates over night. […] Cells were treated with or without 400 ng/ml mouse Gas6 (R&D Systems) by adding ligand directly to the antibody solution, and were then left to grow for 96 h. AlamarBlue™ (BIOSOURCE #DAL1100) was added and incubated at 37° C. in the dark. Absorbance was measured at 590 nm every 30 min. The data were taken 4 h after addition of AlamarBlue™.

[3] = test system: serum-starved NIH3T3-AXL cl.7 fibroblasts; experiment: Caspase-3/7 assay, Gas6-mediated anti-apoptosis; type: cell-based; conditions: 10 μg/ml antibody, with or without 400 ng/ml Gas6, compared to isotypic control antibody
From the text: Induction of apoptosis and activation of caspases can result from a variety of stimuli including growth factor withdrawal, exposure to chemotherapeutic agents or radiation, or initiation of the Fas/Apo-1 receptor-mediated cell death process. […] In the present example we examined whether rat anti-AXL antibodies of the invention interfere with Gas6-mediated anti-apoptosis of serum-starved NIH3T3-AXL cl.7 fibroblasts, and thus induce apoptosis. Apoptosis rates were thereby determined by measurement of the cellular caspase-3/7 activity. For this purpose, NIH3T3-AXL cl.7 cells were seeded at a density of 1.5×10^3 cells per well in black clear-bottom 96 well plates (100 μl/well). The day after, normal growth medium was replaced by serum-reduced medium (DMEM, 0.5% FCS) to starve cells over night for 24 h. […] The cells were washed with PBS, covered with 60 μl of DMEM, 0% FCS, 0.01% BSA, and 10 μl of the respective antibody solution were added. After 1 h incubation at 37° C., 10 μl of DMEM, 0% FCS, 0.01% BSA with or without 3.2 μg/ml mouse Gas6 (R&D Systems) were added (the final concentrations of antibody and Gas6 were 10 μg/ml and 400 ng/ml, respectively), and cells were incubated at 37° C. for another 5 h. […] Using a Victor plate reader (Perkin Elmer), the fluorescence of each well was measured at an excitation wavelength of 485 nm and an emission wavelength of 530 nm.

B1: 11B7: antagonistic rat anti-AXL monoclonal antibody, rat IgG1 (antibody, V domains shown)
VL: DIQMTQAPSSLPASLGDRVTITCRASQDIGNYLRWFQQKPGKSPRLMISGATNLAAGVPSRFSGSRSGSDYSLTISSLESEDMADYYCLQSKESPWTFGGGTKLELK
VH: EVQLQESGPGLVKPSQSLSLTCSVTGYSITSNYWGWIRKFPGDKMEWMGYITYSGSTSYNPSLKSRISITRDTSKNQFFLQLNSVTSEDTATYYCAITTFYYWGQGVMVTVSS
C-8161 melanoma cells; 2.5 μg/ml 11B7 + 0.25 to 1.5 μM cisplatin, 5 days
  soft agar colony growth, combination with cisplatin: significantly potentiated inhibitory effect of cisplatin
C-8161 melanoma cells; 2.5 μg/ml 11B7, 5 days, overall area of colonies
  inhibitory effect on soft agar colony growth, antibody alone: ~30%
[1]; 25 mg/kg i.p. 3x a week, day 8 to 34, compared to isotypic control antibody 1D5
  overall growth of PC-3-LN prostate tumors (in vivo bioluminescence): reduced the overall growth of PC-3-LN prostate tumors
[1]; 25 mg/kg i.p. 3x a week, post necropsy, compared to 1D5
  occurrence of spleen metastases: reduced the occurrence of spleen metastases
[1]; 11B7 25 mg/kg i.p. versus Sutent 40 mg/kg p.o. daily, spleen
  anti-metastatic effect compared with Sutent: stronger than that of Sutent
[2]
  cell proliferation: blocked Gas6-induced proliferation
[3]
  anti-apoptosis (caspase-3/7 activity): reduced Gas6-mediated anti-apoptosis
